Measured values from patent US20250163116A1, “NEW METHOD TO TREAT INFECTIOUS DISEASES” (INSERM (INSTITUT NATIONAL DE LA SANTÉ ET DE LA RECHERCHE …, priority 2022, published 2025).

What was measured:
[1] = test system: Balb/c mice challenged with LPS; test: LPS-induced endotoxemia (sepsis) in mice; format: in vivo; conditions: for sepsis-associated mortality / survival rate: 2 μg/mouse i.v.
Experimental: FIG. 9: ANGPTL4 protects against LPS-induced endotoxemia by preventing vascular dysfunction and organ failure. A-B, Balb/c mice received LPS (5 mg kg-1, i.p.); 30 min after LPS challenge, mice received recombinant human ANGPTL4 (2 μg, intravenously), or vehicle as a control. A, A schematic representation of the protocol used. B, Survival curve (n=16 mice per group): **** P<0.0001; two-sided log-rank Mantel-Cox survival analysis. C,D, Balb/c mice received LPS (5 mg kg-1, i.p.); 30 min after LPS challenge, mice received nANGPTL4 (2 μg, intravenously), or vehicle as a control. C, A schematic representation of the protocol used. D, Survival curve (n=6 mice per group): ** P=0.0033; two-sided log-rank Mantel-Cox survival analysis. E, F, Balb/c mice received LPS (5 mg kg-1, i.p.); 30 min after LPS challenge, mice received Peptide 1 (2 μg, intravenously), or vehicle as a control. E, A schematic representation of the protocol used. F, Survival curve (n=6 mice per group): * P=0.0163; two-sided log-rank Mantel-Cox survival analysis. G, Balb/c mice received LPS (5 mg kg-1. i.p.): 30 min after LPS challenge, mice received recombinant human peptide P9 (2 μg. intravenously). or vehicle as a control. Survival curves (n=6 mice per group). *** P<0.001: two-sided log-rank Mantel-Cox survival analysis. H. Balb/c mice received LPS (4 mg kg-1. i.p.) together with anti-ANGPTL4 blocking antibody (10 μg kg-1. i.v) or vehicle as a control. 18 h after LPS challenge. mice were perfused with Evans blue for 1 h. were killed and brain were extracted. Quantification analysis of Evans blue extravasation (n=4 mice per group). Bars and error bars show the mean±s.e.m., respectively, from two independent experiments: *** P<0.001: NS, not significant (P>0.05) one-way ANOVA Tukey's multiple comparison test.
Female BALB/c mice, obtained from Janvier Labs, 9-10 weeks of age, were administered LPS at 5 mg/kg intraperitoneally and survival was monitored for 72 h (n=12 per group). BALB/c mice were randomly divided into 2 groups: LPS and LPS+Angptl4. Angptl4 (2 μg/mice) or vehicle (physiological saline solution) was administered intravenously 30 min after LPS challenge. In some experiments, blood serum, kidney and lung were collected at 18 h post-LPS challenge. Kidney and lungs were fixed in 4% PFA, embedded in paraffin, and 5-μm sections were cut from each block and stained with H&E. The stained sections were observed and acquired using a slide scanner (Lamina, Perkin Elmer). Analysis of the images was performed using ImageJ software (NIH).
Since severe endothelial dysfunction, leading to dysregulation of hemostasis and vascular dysfunction, is central to the progression to organ failure during sepsis, we analysed whether ANGPTL4 could play a protective role in sepsis, using a lipopolysaccharide (LPS)-induced endotoxemia (FIG. 9A). After LPS-challenge (5 mg kg-1, i.p.), all mice died within two days (FIG. 9B).

[2] = test system: HDMEC infected with N. meningitidis 2C4.3; test: Caspase-3/7 apoptosis detection in infected HDMECs (IncuCyte); format: cell-based, human; conditions: Caspase-3/7 reagent, real time over 9 h, 1 μg/mL
Experimental: FIG. 1. Exogenous ANGPTL4 exerts protective effects on dermal microvascular endothelial cells infected by N. meningitidis. A. HDMECs were infected with Nm 2C4.3 for 30 min and treated with 1 μg/mL of recombinant human ANGPTL4 for 2 h 30. Cells were fixed and stained for cellular actin, VE-cadherin and DAPI and analyzed by fluorescent microscopy. Quantifications of VE-cadherin enrichment at intercellular junctions and of intercellular spaces area were performed on 30 fields with Image J software. Kruskal-Wallis test ** P<0.001; P<0.0001. B. HDMEC were either uninfected or infected with N. meningitidis 2C4.3 for 30 min and treated with 1 μg mL−1 of recombinant human ANGPTL4, its N-terminal portion (nANGPTL4) or its C-terminal portion (cANGPTL4) for 2 h 30. Caspase-3/7 reagent was added to detect apoptosis in real time over 9 h using the IncuCyte® Live-Cell Analysis System

[3] = test system: HDMECs infected with N. meningitidis; test: Release of inflammatory cytokines and markers of vascular inflammation and endothelial alteration by infected HDMECs; format: cell-based, human; conditions: data not shown
Text: In contrast to brain microvascular endothelial cells that resist to meningococcal infection, the integrity of dermal microvascular endothelial cell (HDMECs) monolayer was massively impaired upon infection, as observed with the loss of adherens junctions and cell detachment (data not shown). Since HDMEC poorly produces ANGPTL4 as compared to HBMEC (data not shown), we analysed whether the addition of recombinant human ANGPTL4 might exert a protective effect on these cells. […] Additionally, while infection was accompanied by the massive release of inflammatory cytokines (TNF-α, IL-6, IL-8), markers of vascular inflammation (E-selectin, ICAM-1, VCAM-1), and markers of endothelial cell alteration (Endoglin, Thrombomodulin), all these markers were reduced by 35 to 80% upon treatment with ANGPTL4 (data not shown).

[4] = test system: HDMECs infected with Nm 2C4.3; test: Integrity of HDMEC monolayers infected with N. meningitidis (VE-cadherin at intercellular junctions, immunofluorescence); format: cell-based, human; conditions: uninfected HDMECs
[5] = 18 h post-LPS challenge, data not shown

Row | Molecule | sepsis-associated mortality / survival rate ([1]; LPS 5 mg kg-1 i.p.) | cell apoptosis induced by meningococcal infection [2] | reduction of TNF-α, IL-6, IL-8, E-selectin, ICAM-1, VCAM-1, Endoglin, Thrombomodulin release [3] [%] | LPS-induced acute lung injury (histopathology) [1, 5] | LPS-induced renal haemorrhage [1, 5] | mice surviving LPS challenge ([1]; LPS 5 mg kg-1 i.p., 2 μg/mouse i.v. 30 min after LPS, all control mice died within two days) [%] | overall weight loss ([1]; compared to vehicle-treated control groups) | body temperature ([1]; data not shown) | effect on organization of the adherens junctions formed by HDMECs [4]
1 | nANGPTL4: N-terminal fragment of ANGPTL4, aa 26-164, SEQ ID NO: 24, purchased from R&D Systems (protein, nANGPTL4) GPVQSKSPRFASWDEMNVLAHGLLQLGQGLREHAERTRSQLSALERRLSACGSACQGTEGSTDLPLAPESRVDPEVLHSLQTQLKAQNSRIQQLFHKVAQQQRHLEKQHLRIQHLQSQFGLLDHKHLDHEVAKPARRK | reduced sepsis-associated mortality rate as efficiently as the full-length protein |  |  |  |  |  |  |  | 
2 | ANGPTL4: Recombinant human ANGPTL4 (Angiopoietin-like 4), full length, SEQ ID NO: 1, purchased from R&D Systems (protein, listed as Homo sapiens) MSGAPTAGAALMLCAATAVLLSAQGGPVQSKSPRFASWDEMNVLAHGLLQLGQGLREHAERTRSQLSALERRLSACGSACQGTEGSTDLPLAPESRVDPEVLHSLQTQLKAQNSRIQQLFHKVAQQQRHLEKQHLRIQHLQSQFGLLDHKHLDHEVAKPARRKRLPEMAQPVDPAHNVSRLHRLPRDCQELFQVGERQSGLFEIQPQGSPPFLVNCKMTSDGGWTVIQRRHDGSVDFNRPWEAYKAGFGDPHGEFWLGLEKVHSITGDRNSRLAVQLRDWDGNAELLQFSVHLGGEDTAYSLQLTAPVAGQLGATTVPPSGLSVPFSTWDQDHDLRRDKNCAKSLSGGWWFGTCSHSNLNGQYFRSIPQQRQKLKKGIFWKTWRGRYYPLQATTMLIQPMAAEAAS | markedly reduced sepsis-associated mortality rate | inhibited cell apoptosis | 35 to 80 | no pathological signs | no sign of haemorrhage | 80 | not significantly reduced | rapidly stabilized | no significant effect
3 | cANGPTL4: C-terminal fragment of ANGPTL4, aa 164-406, fibrinogen-like domain, purchased from R&D Systems (protein, listed as Homo sapiens) RLPEMAQPVDPAHNVSRLHRLPRDCQELFQVGERQSGLFEIQPQGSPPFLVNCKMTSDGGWTVIQRRHDGSVDFNRPWEAYKAGFGDPHGEFWLGLEKVHSITGDRNSRLAVQLRDWDGNAELLQFSVHLGGEDTAYSLQLTAPVAGQLGATTVPPSGLSVPFSTWDQDHDLRRDKNCAKSLSGGWWFGTCSHSNLNGQYFRSIPQQRQKLKKGIFWKTWRGRYYPLQATTMLIQPMAAEAAS | did not significantly increased the survival rate |  |  |  |  |  |  |  | 
